US20140086904A1 (CHENGDU KANGHONG BIOTECHNOLOGIES, published 2014)
Changes are numbered by the printed parent chain.

B1: KS04 (antibody, human IgG1, kappa, V domains shown)
VH: QVQLVESGGGLVKPGGSLRLSCAASGFTFSNAWMNWVRQAPGKGLEWVAEIRSKSINSATHYAESVKGRFTISRDNSKKTLYLEMNSLRVEDTAVYYCSRNYYGSTYDYWGQGTTLTVSS
VL: EIVLTQSPDFQSVTPKEKVTITCRASQSIYSSLHWYQQKPDQSPKLLIKFASQSVSGVPSRFSGSGSGTDFTLTINSLEAEDAATYYCQQSHSWPFTFGSGTNVDIKR
B2: KS02 (antibody, human IgG1, kappa, V domains shown)
VH: B1 VH
VL: EIVLTQSPDFQSVSPKETVTITCRASQTVHMSLHWYQQKPNQSPRLLIKYGSQSFSGVPSRFSGSGSGTDFTLTINSLEPEDAATYYCQQSHSWPFTFGSGTNVDIKR
B3: KS08 (antibody, human IgG1, kappa, V domains shown)
VH: B1 VH
VL: B2 VL with S93F
B4: KS07 (antibody, human IgG1, kappa, V domains shown)
VH: B1 VH
VL: B1 VL with S93F
B5: KS10 (Glu) (antibody, V domains shown)
VH: B1 VH with Q1E, N76D, K79N, L81V, E84Q, R89K, V90T
VL: B1 VL with S93W
notes: Full-length IgG1 from CHO cells; VH SH01 with the first amino acid Glu, VK SH08
B6: KS12 (antibody, human IgG1, kappa, V domains shown)
VH: B1 VH
VL: B1 VL with S93W
B7: KS11 (antibody, human IgG1, kappa, V domains shown)
VH: B1 VH
VL: B2 VL with S93W
B8: KS-2E (Fab, V domains shown)
VH: B1 VH with D108Q
VL: B2 VL with S93K
notes: Humanized Fab (heavy chain Fd fragment and light chain), expressed in E. coli periplasm

Tests used:
[1] = biological target: T1, human tumor necrosis factor-α (R & D Co., Catalog Number: 210-TA-050) (human, UniProt P01375 77-233); test: cell-based or functional assay
[2] = biological target: T1, human tumor necrosis factor-α (R & D …); test: BLI, Octet RED 96, biotin-hTNF-α on streptavidin sensor, antibody in solution
Protocol: hTNF-α (R & D Co., 210-TA-050) and NHS-LCLC-biotin (Catalog Number: 21338, purchased from Thermo-fisher Co.,) were mixed uniformly at a molar ratio of 1:3 and kept at room temperature for 1 hour. Then, the remaining NHS-LCLC-biotin was removed by a PD-10 desalting column (Catalog Number: 17-0851-01, purchased from GE Co.,). The final conjugate products obtained were 50 μg/ml of biotin-hTNF-α.

[3] = biological target: T1, human tumor necrosis factor-α (R & D …); test: ELISA, plate coated with human TNF-α, Fab titrated, anti-human C-Kappa-HRP
[4] = biological target: T1, human tumor necrosis factor-α (R & D …); test: cell-based or functional assay; remark: listed apart in the source

T1 sequence (P01375 77-233 limits assumed): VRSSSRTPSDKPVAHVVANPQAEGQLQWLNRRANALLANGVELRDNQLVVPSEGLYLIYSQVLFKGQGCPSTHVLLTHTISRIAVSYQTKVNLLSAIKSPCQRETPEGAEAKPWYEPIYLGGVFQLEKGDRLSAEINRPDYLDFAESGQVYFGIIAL

Row | Binder | EC50, L929 cytotoxicity experiment [1] [nM] | other results
1 | B1 | 0.126 | 
2 | B2 | 0.109 | 
3 | B3 | 0.113 | 
4 | B4 | 0.1 | 
5 | B5 | 0.028 | Kd [2]: 0.00218 nM; koff [2]: 1.02e-07 s⁻¹; kon [2]: 46900 M⁻¹ s⁻¹
6 | B6 | 0.136 | 
7 | B7 | 0.059 | 
8 | B8 |  | EC50 [3]: 6.66 nM; EC50 (read off the curve); L929 cytotoxicity assay, inhibition rate (%) [4]: ~4 nM
